Source: PMC11851098 (Nucleic Acids Research, 2025)

Tests used:
Suv3 helicase = target: T1, Suv3 helicase (UniProt Q8IYB8 23-786, Alexa 647 label (site not stated) in the MST assay); experiment: MST
T1 sequence (looked up): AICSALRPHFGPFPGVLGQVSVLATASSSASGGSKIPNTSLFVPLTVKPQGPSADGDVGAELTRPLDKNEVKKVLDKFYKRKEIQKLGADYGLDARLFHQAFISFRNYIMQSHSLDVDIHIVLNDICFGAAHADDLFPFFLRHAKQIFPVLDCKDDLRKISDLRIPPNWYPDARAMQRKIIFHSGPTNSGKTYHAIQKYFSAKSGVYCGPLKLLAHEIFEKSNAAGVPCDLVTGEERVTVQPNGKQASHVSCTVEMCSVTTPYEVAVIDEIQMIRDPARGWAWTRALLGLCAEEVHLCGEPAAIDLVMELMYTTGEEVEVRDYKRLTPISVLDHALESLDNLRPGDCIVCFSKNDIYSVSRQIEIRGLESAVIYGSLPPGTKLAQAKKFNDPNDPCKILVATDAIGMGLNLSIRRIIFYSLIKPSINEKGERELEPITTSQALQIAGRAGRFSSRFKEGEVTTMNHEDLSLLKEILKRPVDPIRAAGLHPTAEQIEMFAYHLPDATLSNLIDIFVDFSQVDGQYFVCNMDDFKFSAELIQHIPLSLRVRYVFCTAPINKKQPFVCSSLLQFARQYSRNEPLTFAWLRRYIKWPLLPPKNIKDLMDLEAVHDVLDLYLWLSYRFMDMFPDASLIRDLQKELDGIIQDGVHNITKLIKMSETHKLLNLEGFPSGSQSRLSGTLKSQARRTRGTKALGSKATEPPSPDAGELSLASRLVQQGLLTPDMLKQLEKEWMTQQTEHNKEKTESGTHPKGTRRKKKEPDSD

SAXS = target: the molecule itself; experiment: SAXS

B1: hPNPase P467S mutant, residues 46-783 (enzyme, human, UniProt Q8TCS8 46-783, looked up)
chain: AVAVDLGNRKLEISSGKLARFADGSAVVQSGDTAVMVTAVSKTKPSPSQFMPLVVDYRQKAAAAGRIPTNYLRREIGTSDKEILTSRIIDRSIRPLFPAGYFYDTQVLCNLLAVDGVNEPDVLAINGASVALSLSDIPWNGPVGAVRIGIIDGEYVVNPTRKEMSSSTLNLVVAGAPKSQIVMLEASAENILQQDFCHAIKVGVKYTQQIIQGIQQLVKETGVTKRTPQKLFTPSPEIVKYTHKLAMERLYAVFTDYEHDKVSRDEAVNKIRLDTEEQLKEKFPEADPYEIIESFNVVAKEVFRSIVLNEYKRCDGRDLTSLRNVSCEVDMFKTLHGSALFQRGQTQVLCTVTFDSLESGIKSDQVITAINGIKDKNFMLHYEFPPYATNEIGKVTGLNRRELGHGALAEKALYPVIPRDFSFTIRVTSEVLESNGSSSMASACGGSLALMDSGVPISSAVAGVAIGLVTKTDPEKGEIEDYRLLTDILGIEDYNGDMDFKIAGTNKGITALQADIKLPGIPIKIVMEAIQQASVAKKEILQIMNKTISKPRASRKENGPVVETVQVPLSKRAKFVGPGGYNLKKLQAETGVTISQVDEETFSVFAPTPSAMHEARDFITEICKDDQEQQLEFGAVYTATITEIRDTGVMVKLYPNMTAVLLHNTQLDQRKIKHPTALGLEVGQEIQVKYFGRDPADGRMRLSRKVLQSPATTVVRTLNDRSSIVMGEPISQSSSNSQ
For B1, the Kd (Suv3 helicase) was 386 ± 64 nM and the “stoichiometry N” value (SAXS) was 3.
